Blank lines part the entries; values can stand above or below the molecule they belong to. Numbered stars: 1 amine (or outer) side, 2 acyl side, 3 side chain; on linkers, the order of the positions; unused ones are H or OH. Bridge positions count the residues as written; N and C are the ends. * marks the point of attachment. Biphenyldicarbonyl(4,4') = O=C(c1ccc(-c2ccc(C(=O)[*:2])cc2)cc1)[*:1]; Pyrazinecarbonyl = O=C(c1cnccn1)*; Nicotinoyl = O=C(c1cccnc1)*
Key:
[1] = molecular target: T1, recombinant human calcitonin receptor (Homo sapiens, UniProt P30988); assay: CRE-linked luciferase (cyclic AMP) induction in BHK/KZ10-20-48 cells expressing recombinant human calcitonin receptor; type: cell-based; conditions: for % SCT EC50, Human CT receptor: EC50 as % of salmon calcitonin (SCT) EC50, CRE-luciferase, BHK/KZ10-20-48 cells, 4 h induction; for activity / potency compared with human calcitonin: text summary of the Table (hamster and human CT receptor)
T1 construct: expressed in transfected cells; host or cells: BHK/KZ10-20-48 (BHK cells carrying a CRE-luciferase reporter) transfected with pHOLLEX (ATCC 69067)
T1 sequence (P30988 25-474): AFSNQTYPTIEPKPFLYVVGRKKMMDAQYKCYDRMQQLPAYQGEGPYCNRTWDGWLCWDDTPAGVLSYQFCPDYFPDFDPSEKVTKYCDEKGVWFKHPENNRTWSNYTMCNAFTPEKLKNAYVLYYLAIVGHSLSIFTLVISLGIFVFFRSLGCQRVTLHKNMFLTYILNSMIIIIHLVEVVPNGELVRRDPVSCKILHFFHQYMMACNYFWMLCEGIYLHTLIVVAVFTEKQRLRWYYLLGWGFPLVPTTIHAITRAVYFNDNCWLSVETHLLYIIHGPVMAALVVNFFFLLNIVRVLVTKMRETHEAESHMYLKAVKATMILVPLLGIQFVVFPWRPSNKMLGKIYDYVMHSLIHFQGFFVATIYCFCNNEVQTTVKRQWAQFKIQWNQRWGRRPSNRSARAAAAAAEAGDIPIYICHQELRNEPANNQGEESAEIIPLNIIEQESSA
Description: BHK/KZ10-20-48 is a BHK cell line transfected with a plasmid containing a luciferase gene whose expression is dependent upon a cyclic AMP response element (CRE), which induces expression of downstream coding sequences in the presence of cyclic AMP. […] The vector without the calcitonin receptor was used to transfect the cell line BHK/KZ10-20-48 for a negative control. The transfectants were grown in a selective growth medium (Dulbecco's Modified Eagle Medium (DMEM) with 5% serum) containing both 500 μg/ml G418-neomycin and 250 nM methotrexate.
Cells expressing the calcitonin receptor were assayed in triplicate for the induction of the CRE-linked luciferase response to salmon calcitonin (SCT) and derivatized calcitonins at concentrations ranging from 10^-13 M to 10^-6 M. MICROLITE flat bottom tissue culture plates (Baxter Scientific Products, Chicago, Ill.) were set up such that each well contained 2×10^4 cells in 100 μl of selection media, and the cells were grown overnight. […] Induction was initiated by removing old medium from the wells and adding 100 μl of fresh growth medium and 100 μl of either 2X solution in triplicate sample wells. Uninduced luciferase levels were determined in triplicate wells to which 100 μl of DMEM containing 10% fetal calf serum was added. The plates were incubated for four hours at 37° C., 5% CO2 to allow induction of luciferase. Following induction, the media were removed, and the wells were washed once with 200 μl/well PBS. After the wash, 20 μl of a 1:5 dilution (in sterile water) of the stock Cell Culture Lysis Reagent (Luciferase Assay System, Promega Corp., Madison, Wis.) was added to each well, and the plates were incubated for 15 minutes at room temperature. The plates were transferred to a Labsystems Luminoskan microtiter luminometer (Labsystems Inc., Morton Grove, Ill.) which added 40 μl of Luciferase Assay Substrate (Luciferase Assay System, Promega), mixed the reaction for three seconds and integrated the luciferase signal for two seconds per well. The fold induction of luciferase for each compound was calculated as follows:

[2] = tested on: endogenous hamster calcitonin receptor; assay: CRE-linked luciferase (cyclic AMP) induction in BHK cells expressing endogenous hamster calcitonin receptor; type: cell-based; conditions: for % SCT EC50, Hamster CT receptor: EC50 as % of salmon calcitonin (SCT) EC50, CRE-luciferase, BHK cells, 4 h induction
Description: A BHK cell line expressing the endogenous hamster calcitonin receptor was transfected with plasmid KZ10-20-48 to provide the CRE-inducible luciferase receptor described above. The transfected cells were cultured in selective growth medium containing both 500 μg/mL G418-neomycin and 250 nM methotrexate.
Cells expressing the calcitonin receptor were assayed in triplicate for the induction of the CRE-linked luciferase response to salmon calcitonin (SCT) and derivatized calcitonins at concentrations ranging from 10^-13 M to 10^-6 M. MICROLITE flat bottom tissue culture plates (Baxter Scientific Products, Chicago, Ill.) were set up such that each well contained 2×10^4 cells in 100 μl of selection media, and the cells were grown overnight. SCT and GF43 were prepared at 2X the final assay concentration to give 10^-13 to 10^-6 M in growth medium. Induction was initiated by removing old medium from the wells and adding 100 μl of fresh growth medium and 100 μl of either 2X solution in triplicate sample wells. Uninduced luciferase levels were determined in triplicate wells to which 100 μl of DMEM containing 10% fetal calf serum was added. The plates were incubated for four hours at 37° C., 5% CO2 to allow induction of luciferase. Following induction, the media were removed, and the wells were washed once with 200 μl/well PBS. After the wash, 20 μl of a 1:5 dilution (in sterile water) of the stock Cell Culture Lysis Reagent (Luciferase Assay System, Promega Corp., Madison, Wis.) was added to each well, and the plates were incubated for 15 minutes at room temperature. The plates were transferred to a Labsystems Luminoskan microtiter luminometer (Labsystems Inc., Morton Grove, Ill.) which added 40 μl of Luciferase Assay Substrate (Luciferase Assay System, Promega), mixed the reaction for three seconds and integrated the luciferase signal for two seconds per well. The fold induction of luciferase for each compound was calculated as follows:
Fold induction=Induced signal-Uninduced signal Uninduced signal

[3] = molecular target: T2, recombinant human calcitonin receptor (human, UniProt P30988); assay: cell-based or functional assay
T2 sequence: T1 sequence (P30988 25-474)

[4] = molecular target: endogenous hamster calcitonin receptor (hamster)

- % SCT EC50, Human CT receptor [1]: 140%
Molecule: CC(C)C[C@H](NC(=O)[C@H](CCCCN)NC(=O)CNC(=O)[C@H](CC(C)C)NC(=O)[C@@H](NC(=O)[C@@H]1CSSC[C@H](NC(=O)c2ccccn2)C(=O)N[C@@H](CO)C(=O)N[C@@H](CC(N)=O)C(=O)N[C@@H](CC(C)C)C(=O)N[C@@H](CO)C(=O)N[C@@H]([C@@H](C)O)C(=O)N1)C(C)C)C(=O)N[C@@H](CO)C(=O)N[C@@H](CCC(N)=O)C(=O)N[C@@H](CCC(=O)O)C(=O)N[C@@H](CC(C)C)C(=O)N[C@@H](Cc1c[nH]cn1)C(=O)N[C@@H](CCCCN)C(=O)N[C@@H](CC(C)C)C(=O)N[C@@H](CCC(N)=O)C(=O)N[C@H](C(=O)N[C@@H](Cc1ccc(O)cc1)C(=O)N1CCC[C@H]1C(=O)N[C@@H](CCCNC(=N)N)C(=O)N[C@H](C(=O)N[C@@H](CC(N)=O)C(=O)N[C@H](C(=O)NCC(=O)N[C@@H](CO)C(=O)NCC(=O)N[C@H](C(=O)N1CCC[C@H]1C(N)=O)[C@@H](C)O)[C@@H](C)O)[C@@H](C)O)[C@@H](C)O [ZP-6]

- % SCT EC50, Hamster CT receptor [2]: 155%
Molecule: ZP-7: 2-Pyrazinoyl-modified salmon calcitonin

- % SCT EC50, Hamster CT receptor (× 10^3) ([2]; EC50 as % of SCT EC50, the factor × 10^3 is printed under the HCT value only): 5.9 × 10^3%
Molecule: human calcitonin [HCT, reference compound]

- % SCT EC50, Hamster CT receptor [2]: 106%
- activity / potency compared with human calcitonin [1]: greater activity than human calcitonin
Molecule: ZP-8: isonipecotic acid modified salmon calcitonin

Molecule: ZP-10: nipecotic acid modified salmon calcitonin
- % SCT EC50, Hamster CT receptor [2]: 152%

Molecule: ZP-2: 2,2'-bipyridine-5,5'-dicarboxylic acid modified salmon calcitonin
- % SCT EC50, Hamster CT receptor [2]: 125%

- % SCT EC50, Hamster CT receptor [2]: 147%
- activity / potency compared with human calcitonin [1]: greater activity than human calcitonin
Molecule: ZP-9: DL-pipecolinic acid modified salmon calcitonin

- % SCT EC50, Human CT receptor [1]: 112%
Molecule: CC(C)C[C@H](NC(=O)[C@H](CCCCN)NC(=O)CNC(=O)[C@H](CC(C)C)NC(=O)[C@@H](NC(=O)[C@@H]1CSSC[C@H](NC(=O)c2cccnc2)C(=O)N[C@@H](CO)C(=O)N[C@@H](CC(N)=O)C(=O)N[C@@H](CC(C)C)C(=O)N[C@@H](CO)C(=O)N[C@@H]([C@@H](C)O)C(=O)N1)C(C)C)C(=O)N[C@@H](CO)C(=O)N[C@@H](CCC(N)=O)C(=O)N[C@@H](CCC(=O)O)C(=O)N[C@@H](CC(C)C)C(=O)N[C@@H](Cc1c[nH]cn1)C(=O)N[C@@H](CCCCN)C(=O)N[C@@H](CC(C)C)C(=O)N[C@@H](CCC(N)=O)C(=O)N[C@H](C(=O)N[C@@H](Cc1ccc(O)cc1)C(=O)N1CCC[C@H]1C(=O)N[C@@H](CCCNC(=N)N)C(=O)N[C@H](C(=O)N[C@@H](CC(N)=O)C(=O)N[C@H](C(=O)NCC(=O)N[C@@H](CO)C(=O)NCC(=O)N[C@H](C(=O)N1CCC[C@H]1C(N)=O)[C@@H](C)O)[C@@H](C)O)[C@@H](C)O)[C@@H](C)O [ZP-5]

- % SCT EC50, Hamster CT receptor [2]: 341%
Molecule: ZP-3: 4-4'-biphenyldicarboxylic acid modified salmon calcitonin

- % SCT EC50 (CRE-linked luciferase induction) [3]: 158 % SCT EC50
- % SCT EC50 (CRE-linked luciferase induction) [4]: 155 % SCT EC50
B1: 2-Pyrazinoyl-modified calcitonin (peptide)
peptide: Pyrazinecarbonyl-CSNLSTCVLGKLSQELHKLQTYPRTNTGSGTP-NH2
modifications: disulfide 1-7
SMILES: CC(C)C[C@H](NC(=O)[C@H](CCCCN)NC(=O)CNC(=O)[C@H](CC(C)C)NC(=O)[C@@H](NC(=O)[C@@H]1CSSC[C@H](NC(=O)c2cnccn2)C(=O)N[C@@H](CO)C(=O)N[C@@H](CC(N)=O)C(=O)N[C@@H](CC(C)C)C(=O)N[C@@H](CO)C(=O)N[C@@H]([C@@H](C)O)C(=O)N1)C(C)C)C(=O)N[C@@H](CO)C(=O)N[C@@H](CCC(N)=O)C(=O)N[C@@H](CCC(=O)O)C(=O)N[C@@H](CC(C)C)C(=O)N[C@@H](Cc1c[nH]cn1)C(=O)N[C@@H](CCCCN)C(=O)N[C@@H](CC(C)C)C(=O)N[C@@H](CCC(N)=O)C(=O)N[C@H](C(=O)N[C@@H](Cc1ccc(O)cc1)C(=O)N1CCC[C@H]1C(=O)N[C@@H](CCCNC(=N)N)C(=O)N[C@H](C(=O)N[C@@H](CC(N)=O)C(=O)N[C@H](C(=O)NCC(=O)N[C@@H](CO)C(=O)NCC(=O)N[C@H](C(=O)N1CCC[C@H]1C(N)=O)[C@@H](C)O)[C@@H](C)O)[C@@H](C)O)[C@@H](C)O

- % SCT EC50 (CRE-linked luciferase induction) [3]: 450 % SCT EC50
- % SCT EC50 (CRE-linked luciferase induction) [4]: 341 % SCT EC50
B2: 4-4'-biphenyldicarboxylic acid modified salmon calcitonin (peptide)
peptide: {Biphenyldicarbonyl(4,4')}-CSNLSTCVLGKLSQELHKLQTYPRTNTGSGTP-NH2
modifications: disulfide 1-7
SMILES: CC(C)C[C@H](NC(=O)[C@H](CCCCN)NC(=O)CNC(=O)[C@H](CC(C)C)NC(=O)[C@@H](NC(=O)[C@@H]1CSSC[C@H](NC(=O)c2ccc(-c3ccc(C(=O)O)cc3)cc2)C(=O)N[C@@H](CO)C(=O)N[C@@H](CC(N)=O)C(=O)N[C@@H](CC(C)C)C(=O)N[C@@H](CO)C(=O)N[C@@H]([C@@H](C)O)C(=O)N1)C(C)C)C(=O)N[C@@H](CO)C(=O)N[C@@H](CCC(N)=O)C(=O)N[C@@H](CCC(=O)O)C(=O)N[C@@H](CC(C)C)C(=O)N[C@@H](Cc1c[nH]cn1)C(=O)N[C@@H](CCCCN)C(=O)N[C@@H](CC(C)C)C(=O)N[C@@H](CCC(N)=O)C(=O)N[C@H](C(=O)N[C@@H](Cc1ccc(O)cc1)C(=O)N1CCC[C@H]1C(=O)N[C@@H](CCCNC(=N)N)C(=O)N[C@H](C(=O)N[C@@H](CC(N)=O)C(=O)N[C@H](C(=O)NCC(=O)N[C@@H](CO)C(=O)NCC(=O)N[C@H](C(=O)N1CCC[C@H]1C(N)=O)[C@@H](C)O)[C@@H](C)O)[C@@H](C)O)[C@@H](C)O

- % SCT EC50 (CRE-linked luciferase induction) [3]: 112 % SCT EC50
- % SCT EC50 (CRE-linked luciferase induction) [4]: 71 % SCT EC50
B3: Nicotinic acid-modified Calcitonin (peptide)
peptide: Nicotinoyl-CSNLSTCVLGKLSQELHKLQTYPRTNTGSGTP-NH2
modifications: disulfide 1-7
SMILES: CC(C)C[C@H](NC(=O)[C@H](CCCCN)NC(=O)CNC(=O)[C@H](CC(C)C)NC(=O)[C@@H](NC(=O)[C@@H]1CSSC[C@H](NC(=O)c2cccnc2)C(=O)N[C@@H](CO)C(=O)N[C@@H](CC(N)=O)C(=O)N[C@@H](CC(C)C)C(=O)N[C@@H](CO)C(=O)N[C@@H]([C@@H](C)O)C(=O)N1)C(C)C)C(=O)N[C@@H](CO)C(=O)N[C@@H](CCC(N)=O)C(=O)N[C@@H](CCC(=O)O)C(=O)N[C@@H](CC(C)C)C(=O)N[C@@H](Cc1c[nH]cn1)C(=O)N[C@@H](CCCCN)C(=O)N[C@@H](CC(C)C)C(=O)N[C@@H](CCC(N)=O)C(=O)N[C@H](C(=O)N[C@@H](Cc1ccc(O)cc1)C(=O)N1CCC[C@H]1C(=O)N[C@@H](CCCNC(=N)N)C(=O)N[C@H](C(=O)N[C@@H](CC(N)=O)C(=O)N[C@H](C(=O)NCC(=O)N[C@@H](CO)C(=O)NCC(=O)N[C@H](C(=O)N1CCC[C@H]1C(N)=O)[C@@H](C)O)[C@@H](C)O)[C@@H](C)O)[C@@H](C)O

- % SCT EC50 (CRE-linked luciferase induction) [3]: 140 % SCT EC50
- % SCT EC50 (CRE-linked luciferase induction) [4]: 98 % SCT EC50
B4: Pycolinyl-modified Calcitonin (peptide)
peptide: {picolinic acid}-CSNLSTCVLGKLSQELHKLQTYPRTNTGSGTP-NH2
modifications: disulfide 1-7
